The source of these data is patent US20210255185A1.

The target of assay [1] is methyl cytosine binding protein 2 (MeCP2). Description: immunofluorescence, cells transduced with AAV9-MECP2 at MOI 75000, well 2 (background level).
Assay [2] deals with human survival motor neuron (SMN1) protein (human) (UniProt Q16637). Description: immunofluorescence, cells transduced with AAV9-SMN1 at MOI 75000, well 1.
Assay [3] has the same target. Description: immunofluorescence, cells transduced with AAV9-SMN1 at MOI 37500, well 1.
Assay [4] concerns the target methyl cytosine binding protein 2 (MeCP2). Description: immunofluorescence, cells transduced with AAV9-MECP2 at MOI 37500, well 1 (background level).
Assay [5] deals with human survival motor neuron (SMN1) protein (human) (UniProt Q16637). Description: immunofluorescence, cells transduced with AAV9-SMN1 at MOI 37500, well 2.
Assay [6] deals with methyl cytosine binding protein 2 (MeCP2). Description: immunofluorescence, cells transduced with AAV9-MECP2 at MOI 75000, well 1 (background level).
For assay [7], the target named is human survival motor neuron (SMN1) protein (human) (UniProt Q16637). Description: immunofluorescence, cells transduced with AAV9-SMN1 at MOI 150000, well 2.
The target in assay [8] is methyl cytosine binding protein 2 (MeCP2). Description: immunofluorescence, cells transduced with AAV9-MECP2 at MOI 300000, well 1 (background level).
Assay [9] deals with human survival motor neuron (SMN1) protein (human) (UniProt Q16637). Description: immunofluorescence, fixed/permeabilised mTD-NPC-delta7 cells transduced with AAV9-SMN1 at MOI 300000, well 2.
For assay [10], the target named is methyl cytosine binding protein 2 (MeCP2). Description: immunofluorescence, cells transduced with AAV9-MECP2 at MOI 150000, well 1 (background level).
The target is the same in assay [11]. Description: immunofluorescence, cells transduced with AAV9-MECP2 at MOI 150000, well 2 (background level).
For assay [12] the target is unchanged. Description: immunofluorescence, cells transduced with AAV9-MECP2 at MOI 37500, well 2 (background level).
In assay [13] the target is human survival motor neuron (SMN1) protein (human) (UniProt Q16637). Description: immunofluorescence, cells transduced with AAV9-SMN1 at MOI 150000, well 1.
The target is the same in assay [14]. Description: immunofluorescence, cells transduced with AAV9-SMN1 at MOI 18750, well 2.
The target is the same in assay [15]. Description: immunofluorescence, cells transduced with AAV9-SMN1 at MOI 18750, well 1.
The target is the same in assay [16]. Description: immunofluorescence, cells transduced with AAV9-SMN1 at MOI 75000, well 2.
Assay [17] has as its target methyl cytosine binding protein 2 (MeCP2). Description: immunofluorescence, cells transduced with AAV9-MECP2 at MOI 18750, well 1 (background level).
Assay [18] shares this target. Description: immunofluorescence, cells transduced with AAV9-MECP2 at MOI 18750, well 2 (background level).
Assay [19] has the same target. Description: immunofluorescence, cells transduced with AAV9-MECP2 at MOI 300000, well 2 (background level).
Assay [20] deals with human survival motor neuron (SMN1) protein (human) (UniProt Q16637). Description: immunofluorescence, fixed/permeabilised mTD-NPC-delta7 cells transduced with AAV9-SMN1 at MOI 300000, well 1.

Chain of UniProt Q16637 (Q16637 2-294 limits assumed): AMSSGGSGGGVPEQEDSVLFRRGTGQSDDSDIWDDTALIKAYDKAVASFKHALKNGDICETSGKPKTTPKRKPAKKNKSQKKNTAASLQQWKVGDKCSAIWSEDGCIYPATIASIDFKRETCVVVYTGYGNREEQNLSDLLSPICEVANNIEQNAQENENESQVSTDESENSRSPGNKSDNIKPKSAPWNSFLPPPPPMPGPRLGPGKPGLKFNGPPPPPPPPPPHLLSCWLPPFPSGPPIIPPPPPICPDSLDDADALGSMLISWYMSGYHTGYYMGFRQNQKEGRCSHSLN

Take “mouse monoclonal anti-SMN antibody (Clone 2B1)”: the IFI-C (integrated fluorescent intensity per cell) in assay [1] is 860000; in assay [2] it was 2.34e+06; in [3], 1.87e+06; in assay [4] it was 809000; in [5], 1.86e+06; in assay [6], 837000. Further, the IFI-C (integrated fluorescent intensity per cell) in assay [7] worked out at 3.02e+06; in [8], 867000; in assay [9] it was 3.27e+06; in [10], 886000; in assay [11] it was 839000; in assay [12] it was 817000. Further, the IFI-C (integrated fluorescent intensity per cell) in [13] amounted to 2.87e+06; in assay [14] it was 1.51e+06; in assay [15], 1.46e+06; in assay [16], 2.46e+06; in [17] it was 720000; in assay [18], 759000. Also, the figures for the IFI-C (integrated fluorescent intensity per cell) in assay [19] and in [20] were 875000 and 3.43e+06, respectively.
